B1: HDV Ribozyme (parent)
chain: GGCCGGCAUGGUCCCAGCCUCCUCGCUGGCGCCGGCUGGGCAACAUUCCGAGGGGACCGUCCCCUCGGUAAUGGCGAAUGGGACCCA

Variants of: B1
Test: self-cleavage, relative activity (ratio to wild type); higher = more cleavage; co-transcriptional

Variant | self-cleavage
GGCCGGCAUGGUCCCAGCCUCCUCGCUGGCGCCGGCUGGGCAACAUUCCGAGGGGACCGUCCCCUCGCUAAUGGCGAAUGGGACCCA [G68C] | 0.911
GGCCGGCAUGGUCCCAGCCUCCUCGCUGGCGCCGGCUGGGCAACAUUCCGAGGGGACCGUCCCCUCGAUAAUGGCGAAUGGGACCCA [G68A] | 0.952
GGCCGGCAUGGUCCCAGCCUCCUCGCUGGCGCCGGCUGGGCAACAUUCCGAGGGGACCGUCCCCUCCGUAAUGCCGAAUGGGACCCA [G67C G74C] | 0.123
GGCCGGCAUGGUCCCAGCCUCCUCGCUGGCGCCGGCUGGGCAACAUUCCGAGGGGACCGUCCCCUUGGUAAUGGCGAAUGGGAGCCA [C66U C84G] | 0.57
GGCCGGCAUGGUCCCAGCCUCCUCGCUGGCGCCGGCUGGGCAACAUUCCGAGGGGACCGUCCCCUCCGUAAUGGCGAUUGGGACCCA [G67C A78U] | 0.225
GGCCGGCAUGGUCCCAGCCUCCUCGCUGGCGCCGGCUGGGCAACAUUCCGAGGGGACCGUCCCCUCCGUAAUGGGGAAUGGGACCCA [G67C C75G] | 0.0475
GGCCGGCAUGGUCCCAGCCUCCUCGCUGGCGCCGGCUGGGCAACAUUCCGAGGGGACCGUCCCCUCCGUAAUGGUGAAUGGGACCCA [G67C C75U] | 0.0545
GGCCGGCAUGGUCCCAGCCUCCUCGCUGGCGCCGGCUGGGCAACAUUCCGAGGGGACCGUCCCCUCCGUAAUGGAGAAUGGGACCCA [G67C C75A] | 0.0652
GGCCGGCAUGGUCCCAGCCUCCUCGCUGGCGCCGGCUGGGCAACAUUCCGAGGGGACCGUCCCCUCCGUAAUGGCGAAUGGGACCCU [G67C A87U] | 0.858
GGCCGGCAUGGUCCCAGCCUCCUCGCUGGCGCCGGCUGGGCAACAUUCCGAGGGGACCGUCCCCUCAGUAAAGGCGAAUGGGACCCA [G67A U72A] | 0.532
GGCCGGCAUGGUCCCAGCCUCCUCGCUGGCGCCGGCUGGGCAACAUUCCGAGGGGACCGUCCCCUCGAUAAUGGCGAAUGGGACGCA [G68A C85G] | 0.774
GGCCGGCAUGGUCCCAGCCUCCUCGCUGGCGCCGGCUGGGCAACAUUCCGAGGGGACCGUCCCCUCCGUAAUUGCGAAUGGGACCCA [G67C G73U] | 0.322
GGCCGGCAUGGUCCCAGCCUCCUCGCUGGCGCCGGCUGGGCAACAUUCCGAGGGGACCGUCCCCUUAGUAAUGGCGAAUGGGACCCA [C66U G67A] | 0.786
GGCCGGCAUGGUCCCAGCCUCCUCGCUGGCGCCGGCUGGGCAACAUUCCGAGGGGACCGUCCCCUUGGUAAUGGCGAAUGGGACCCG [C66U A87G] | 0.999
GGCCGGCAUGGUCCCAGCCUCCUCGCUGGCGCCGGCUGGGCAACAUUCCGAGGGGACCGUCCCCUCCGUAAUGGCGCAUGGGACCCA [G67C A77C] | 0.227
GGCCGGCAUGGUCCCAGCCUCCUCGCUGGCGCCGGCUGGGCAACAUUCCGAGGGGACCGUCCCCUCAGUAAUGGCGAAUUGGACCCA [G67A G80U] | 0.203
GGCCGGCAUGGUCCCAGCCUCCUCGCUGGCGCCGGCUGGGCAACAUUCCGAGGGGACCGUCCCCUCGCUUAUGGCGAAUGGGACCCA [G68C A70U] | 0.778
GGCCGGCAUGGUCCCAGCCUCCUCGCUGGCGCCGGCUGGGCAACAUUCCGAGGGGACCGUCCCCUCUGUAAUGGCGAAUGGGACCAA [G67U C86A] | 1
GGCCGGCAUGGUCCCAGCCUCCUCGCUGGCGCCGGCUGGGCAACAUUCCGAGGGGACCGUCCCCUUGGUAAUGGCGAAUUGGACCCA [C66U G80U] | 0.295
GGCCGGCAUGGUCCCAGCCUCCUCGCUGGCGCCGGCUGGGCAACAUUCCGAGGGGACCGUCCCCUUGGUAAUGGCGAACGGGACCCA [C66U U79C] | 0.571
GGCCGGCAUGGUCCCAGCCUCCUCGCUGGCGCCGGCUGGGCAACAUUCCGAGGGGACCGUCCCCUCCGUAAUGGCGAAUGGGCCCCA [G67C A83C] | 0.293
GGCCGGCAUGGUCCCAGCCUCCUCGCUGGCGCCGGCUGGGCAACAUUCCGAGGGGACCGUCCCCUCGAUAAUGGAGAAUGGGACCCA [G68A C75A] | 0.164

Variant | self-cleavage
GGCCGGCAUGGUCCCAGCCUCCUCGCUGGCGCCGGCUGGGCAACAUUCCGAGGGGACCGUCCCCUCAGUAAUGGCGUAUGGGACCCA [G67A A77U] | 0.339
GGCCGGCAUGGUCCCAGCCUCCUCGCUGGCGCCGGCUGGGCAACAUUCCGAGGGGACCGUCCCCUCCGUAUUGGCGAAUGGGACCCA [G67C A71U] | 0.716
GGCCGGCAUGGUCCCAGCCUCCUCGCUGGCGCCGGCUGGGCAACAUUCCGAGGGGACCGUCCCCUCUGUAAUGCCGAAUGGGACCCA [G67U G74C] | 0.151
GGCCGGCAUGGUCCCAGCCUCCUCGCUGGCGCCGGCUGGGCAACAUUCCGAGGGGACCGUCCCCUCUGUAAUGACGAAUGGGACCCA [G67U G74A] | 0.379
GGCCGGCAUGGUCCCAGCCUCCUCGCUGGCGCCGGCUGGGCAACAUUCCGAGGGGACCGUCCCCUCAGUAAUGGCGAAUGGGCCCCA [G67A A83C] | 0.464
GGCCGGCAUGGUCCCAGCCUCCUCGCUGGCGCCGGCUGGGCAACAUUCCGAGGGGACCGUCCCCUCCGUAAGGGCGAAUGGGACCCA [G67C U72G] | 0.231
GGCCGGCAUGGUCCCAGCCUCCUCGCUGGCGCCGGCUGGGCAACAUUCCGAGGGGACCGUCCCCUCUGUAAUGGCGAAUGAGACCCA [G67U G81A] | 0.254
GGCCGGCAUGGUCCCAGCCUCCUCGCUGGCGCCGGCUGGGCAACAUUCCGAGGGGACCGUCCCCUCCGUGAUGGCGAAUGGGACCCA [G67C A70G] | 0.712
GGCCGGCAUGGUCCCAGCCUCCUCGCUGGCGCCGGCUGGGCAACAUUCCGAGGGGACCGUCCCCUCUGUAAUGGCGCAUGGGACCCA [G67U A77C] | 0.373
GGCCGGCAUGGUCCCAGCCUCCUCGCUGGCGCCGGCUGGGCAACAUUCCGAGGGGACCGUCCCCUCUGUAAUGGUGAAUGGGACCCA [G67U C75U] | 0.104
GGCCGGCAUGGUCCCAGCCUCCUCGCUGGCGCCGGCUGGGCAACAUUCCGAGGGGACCGUCCCCUCUGUAAUGGCGAAUUGGACCCA [G67U G80U] | 0.25
GGCCGGCAUGGUCCCAGCCUCCUCGCUGGCGCCGGCUGGGCAACAUUCCGAGGGGACCGUCCCCUCCGCAAUGGCGAAUGGGACCCA [G67C U69C] | 1
GGCCGGCAUGGUCCCAGCCUCCUCGCUGGCGCCGGCUGGGCAACAUUCCGAGGGGACCGUCCCCUCCGGAAUGGCGAAUGGGACCCA [G67C U69G] | 0.943
GGCCGGCAUGGUCCCAGCCUCCUCGCUGGCGCCGGCUGGGCAACAUUCCGAGGGGACCGUCCCCUCCGAAAUGGCGAAUGGGACCCA [G67C U69A] | 0.96
GGCCGGCAUGGUCCCAGCCUCCUCGCUGGCGCCGGCUGGGCAACAUUCCGAGGGGACCGUCCCCUCAGUACUGGCGAAUGGGACCCA [G67A A71C] | 0.752
GGCCGGCAUGGUCCCAGCCUCCUCGCUGGCGCCGGCUGGGCAACAUUCCGAGGGGACCGUCCCCUCUGUAAUGGCGAAUGGAACCCA [G67U G82A] | 0.28
GGCCGGCAUGGUCCCAGCCUCCUCGCUGGCGCCGGCUGGGCAACAUUCCGAGGGGACCGUCCCCUCUGUAAUGGCGAAUGGCACCCA [G67U G82C] | 0.182
GGCCGGCAUGGUCCCAGCCUCCUCGCUGGCGCCGGCUGGGCAACAUUCCGAGGGGACCGUCCCCUCGAUAAUGACGAAUGGGACCCA [G68A G74A] | 0.51
GGCCGGCAUGGUCCCAGCCUCCUCGCUGGCGCCGGCUGGGCAACAUUCCGAGGGGACCGUCCCCUCUGUAAAGGCGAAUGGGACCCA [G67U U72A] | 0.665
GGCCGGCAUGGUCCCAGCCUCCUCGCUGGCGCCGGCUGGGCAACAUUCCGAGGGGACCGUCCCCUCUGUAAUGGCGAAUGGGACCCU [G67U A87U] | 0.898
GGCCGGCAUGGUCCCAGCCUCCUCGCUGGCGCCGGCUGGGCAACAUUCCGAGGGGACCGUCCCCUCUGUAAUGGCGAAUGGGACCCG [G67U A87G] | 0.91
GGCCGGCAUGGUCCCAGCCUCCUCGCUGGCGCCGGCUGGGCAACAUUCCGAGGGGACCGUCCCCUCAGUAAUGGCGAAUGGCACCCA [G67A G82C] | 0.224

Variant | self-cleavage
GGCCGGCAUGGUCCCAGCCUCCUCGCUGGCGCCGGCUGGGCAACAUUCCGAGGGGACCGUCCCCUCGAGAAUGGCGAAUGGGACCCA [G68A U69G] | 0.917
GGCCGGCAUGGUCCCAGCCUCCUCGCUGGCGCCGGCUGGGCAACAUUCCGAGGGGACCGUCCCCUCGAUAAUGGCGAAUGGUACCCA [G68A G82U] | 0.324
GGCCGGCAUGGUCCCAGCCUCCUCGCUGGCGCCGGCUGGGCAACAUUCCGAGGGGACCGUCCCCUCUGAAAUGGCGAAUGGGACCCA [G67U U69A] | 0.801
GGCCGGCAUGGUCCCAGCCUCCUCGCUGGCGCCGGCUGGGCAACAUUCCGAGGGGACCGUCCCCUCGAUAAUGGCGAAUGGGGCCCA [G68A A83G] | 0.522
GGCCGGCAUGGUCCCAGCCUCCUCGCUGGCGCCGGCUGGGCAACAUUCCGAGGGGACCGUCCCCUCGAUAAUGGCGAAUGGGCCCCA [G68A A83C] | 0.519
GGCCGGCAUGGUCCCAGCCUCCUCGCUGGCGCCGGCUGGGCAACAUUCCGAGGGGACCGUCCCCUUGGUAAUGUCGAAUGGGACCCA [C66U G74U] | 0.475
GGCCGGCAUGGUCCCAGCCUCCUCGCUGGCGCCGGCUGGGCAACAUUCCGAGGGGACCGUCCCCUUGGUAAUGGCGAAUGGUACCCA [C66U G82U] | 0.277
GGCCGGCAUGGUCCCAGCCUCCUCGCUGGCGCCGGCUGGGCAACAUUCCGAGGGGACCGUCCCCUCUGUAUUGGCGAAUGGGACCCA [G67U A71U] | 0.992
GGCCGGCAUGGUCCCAGCCUCCUCGCUGGCGCCGGCUGGGCAACAUUCCGAGGGGACCGUCCCCUUGGGAAUGGCGAAUGGGACCCA [C66U U69G] | 0.867
GGCCGGCAUGGUCCCAGCCUCCUCGCUGGCGCCGGCUGGGCAACAUUCCGAGGGGACCGUCCCCUCAGUAAUGGGGAAUGGGACCCA [G67A C75G] | 0.181
GGCCGGCAUGGUCCCAGCCUCCUCGCUGGCGCCGGCUGGGCAACAUUCCGAGGGGACCGUCCCCUCAGUAAUGGCGAAUGAGACCCA [G67A G81A] | 0.302
GGCCGGCAUGGUCCCAGCCUCCUCGCUGGCGCCGGCUGGGCAACAUUCCGAGGGGACCGUCCCCUCUGUAAUGGCGAAUGGGAUCCA [G67U C84U] | 0.771
GGCCGGCAUGGUCCCAGCCUCCUCGCUGGCGCCGGCUGGGCAACAUUCCGAGGGGACCGUCCCCUCCGUAAUGGCAAAUGGGACCCA [G67C G76A] | 1.11
GGCCGGCAUGGUCCCAGCCUCCUCGCUGGCGCCGGCUGGGCAACAUUCCGAGGGGACCGUCCCCUCCGUAAUGGCUAAUGGGACCCA [G67C G76U] | 1.11
GGCCGGCAUGGUCCCAGCCUCCUCGCUGGCGCCGGCUGGGCAACAUUCCGAGGGGACCGUCCCCUCGAUAAUGGCGAAAGGGACCCA [G68A U79A] | 0.554
GGCCGGCAUGGUCCCAGCCUCCUCGCUGGCGCCGGCUGGGCAACAUUCCGAGGGGACCGUCCCCUCAGUAAUGGCGAAUGGGACCCC [G67A A87C] | 0.956
GGCCGGCAUGGUCCCAGCCUCCUCGCUGGCGCCGGCUGGGCAACAUUCCGAGGGGACCGUCCCCUCAGUAAUGGCGAAUGGGACCCU [G67A A87U] | 1.06
GGCCGGCAUGGUCCCAGCCUCCUCGCUGGCGCCGGCUGGGCAACAUUCCGAGGGGACCGUCCCCUCGAUACUGGCGAAUGGGACCCA [G68A A71C] | 0.58
GGCCGGCAUGGUCCCAGCCUCCUCGCUGGCGCCGGCUGGGCAACAUUCCGAGGGGACCGUCCCCUCUGUAAUGGCGAUUGGGACCCA [G67U A78U] | 0.253
GGCCGGCAUGGUCCCAGCCUCCUCGCUGGCGCCGGCUGGGCAACAUUCCGAGGGGACCGUCCCCUCGAUAAUGGCGAAUGGGACCCC [G68A A87C] | 0.918
